Results reported in patent US20100009868, “Self-Assembled Combinatorial Encoding Nanoarrays for Multiplexed Biosensing” (The Arizona Board of Regents a body corporate acti ng for …, published 2010).
Read-outs that look alike come from different tables or passages of the source.

Assays:
[1] = target: T1, BSA (bovine serum albumin) (UniProt P02769 P02769:25-607); assay: 6 uM BSA, no color change of array; conditions: label: Alexa Fluor 488
Experimental: (§1) Desired amount of detection targets were added into 10 μl multiplexed detection solution. Unless elsewhere mentioned, final concentration of detection targets was 0.5 μM for DNA targets, 6 μM for thrombin and 3 mM for ATP. The mixture was thoroughly mixed by vortexing and then incubated at room temperature for 30 min before imaging.
(§2) Two different aptamer binding targets were used: human α-thrombin and ATP (See Table 1). The DNA sequences of probe 3 and 4 are, in fact, the aptamer sequences for these two targets.

alpha-thrombin [2] = target: T2, alpha-thrombin (Homo sapiens, UniProt P00734;P00734 P00734:328-363,P00734:364-622)
alpha-thrombin [3] = target: T2, alpha-thrombin; assay: no color change of array; 6 uM thrombin, 1xTAE-Mg, RT; conditions: label: Alexa Fluor 488; partially hybridised to anchor strand on DNA B tile
Experimental: as §1, §2

[4] = target: T1, BSA (bovine serum albumin); assay: no significant 3MI fluorescence change on array; conditions: label: 3MI at position 7
alpha-thrombin [5] = target: alpha-thrombin (Homo sapiens, UniProt P00734;P00734 P00734:328-363,P00734:364-622); assay: possibly CITED (ref 13); apparent Kd for strand-displacement probe; Table 1 labels of probes 3 and 4 appear swapped, Table 2 and sequence assign probe 3 to thro
[6] = partially hybridised to anchor strand on DNA B tile

T1 sequence (P02769 25-607, one chain of several): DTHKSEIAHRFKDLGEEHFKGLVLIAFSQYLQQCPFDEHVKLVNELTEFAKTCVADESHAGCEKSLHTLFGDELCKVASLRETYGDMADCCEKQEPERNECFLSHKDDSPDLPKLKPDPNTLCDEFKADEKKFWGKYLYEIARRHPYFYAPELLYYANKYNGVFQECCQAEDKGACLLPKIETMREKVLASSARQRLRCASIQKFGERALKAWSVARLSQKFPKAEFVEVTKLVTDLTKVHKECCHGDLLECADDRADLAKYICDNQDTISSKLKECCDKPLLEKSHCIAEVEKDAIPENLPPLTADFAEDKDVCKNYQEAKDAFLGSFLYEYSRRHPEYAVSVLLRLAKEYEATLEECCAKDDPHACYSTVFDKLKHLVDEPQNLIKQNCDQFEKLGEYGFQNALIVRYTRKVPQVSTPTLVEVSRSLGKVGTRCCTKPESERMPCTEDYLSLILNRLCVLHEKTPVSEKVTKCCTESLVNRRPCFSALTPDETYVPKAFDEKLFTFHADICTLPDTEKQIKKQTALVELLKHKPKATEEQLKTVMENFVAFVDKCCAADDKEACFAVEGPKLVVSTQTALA

CGTCTCTACCTGATTACTATTGCATCT (ssDNA) [Probe 1 (SARS probe)]
binding result [1, 6]: no binding | binding result (alpha-thrombin [2]): no binding

TTTAACAGCAGTTGAGTTGATACTACTGGCCTAATTCCA (ssDNA) [Probe 2 (HIV probe)]
binding result [1, 6]: no binding | binding result (alpha-thrombin [3]): no binding

CACTGACCTGGGGGAGTATTGCGGAGGAAGGT (ssDNA) [Probe 4 (ATP aptamer containing)]
binding result [1, 6]: no binding

GGTTGGTGTGGTTGG (structured_DNA, dT7 replaced by 3-methylisoxanthopterin (3MI)) [3MI-TBA signaling aptamer on DNA tile array]
binding result [4]: no binding

CACTGTGGTTGGTGTGGTTGG (ssDNA) [Probe 3 (thrombin aptamer containing)]
binding result ([1]; partially hybridised to anchor strand on DNA B tile (8-12 bp)): no binding | Kd (alpha-thrombin [5]): ~400 nM
